Tested on: KE4-CTL
Experiment: IFN-γ production from KE4-CTL against VA13 cells co-transfected with cDNA clone and HLA-A2601
Format: cell-based, human
Source text: A gene encoding a tumor antigen recognized by KE4-CTL was isolated/identified from a human esophageal cancer cell line KE4 according to a known method [J. Exp. Med., 187: 277-288, 1998.] First of all, poly (A) ^+RNA of KE4 cells was converted to cDNA, ligated with a SalI adaptor so as to insert into the expression vector pSV-SPORT-1 (Invitrogen Corp.). Moreover, cDNA of HLA-A2601 was obtained by the reverse transcription-polymerase chain reaction (RT-PCR) and cloned into the eukaryotic cell expression vector pCR3 (Invitrogen Corp.).
A cDNA library of KE4 cells was pooled so that each pool contained 100 clones, and 200 ng of the cDNA pooled in each well and 200 ng of the HLA-A2601cDNA were mixed in 100 μl of lipofectoamine (Invitrogen Corp.)/Opti-MEM (Invitrogen Corp.) 1:200 mixture for 30 min. 50 μl of the obtained mixture was added to VA13 cells (1×10^4), and incubated for 6 h for co-transduction. Then, RPMI-1640 culture medium containing 10% FCS was added thereto and culturing was carried out for 2 days, followed by addition of KE4-CTL (2×10^5) to each well. After a further 18 h incubation, 100 μl of the supernatant was collected, and IFN-γ production was measured by ELISA.
A pool of cDNA library was screened with the criteria in which cDNA capable of enhancing IFN-γ production from KE4-CTL was judged as a positive one having CTL-activating ability. […]

B1: KE4-cl.18: cDNA clone from esophageal cancer cell line KE4 encoding KE4-18-PP (nucleic acid, listed as Homo sapiens)
DNA: GGGGCCGGGGCCGAGGCCGCGGAGCTCGCGGAGGCAAGGCCGAGGATAAGGAGTGGATGCCCGTCACCAAGTTGGGCCGCTTGGTCAAGGACATGAAGATCAAGTCCCTGGAGGAGATCTATCTCTTCTCCCTGCCCATTAAGGAATCAGAGATCATTGATTTCTTCCTGGGGGCCTCTCTCAAGGATGAGGTTTTGAAGATTATGCCAGTGCAGAAGCAGACCCGTGCCGGCCAGCGCACCAGGTTCAAGGCATTTGTTGCTATCGGGGACTACAATGGCCACGTCGGTCTGGGTGTTAAGTGCTCCAAGGAGGTGGCCACCGCCATCCGTGGGGCCATCATCCTGGCCAAGCTCTCCATCGTCCCCGTGCGCAGAGGCTACTGGGGGAACAAGATCGGCAAGCCCCACACTGTCCCTTGCAAGGTGACAGGCCGCTGCGGCTCTGTGCTGGTACGCCTCATCCCTGCACCCAGGGGCACTGGCATCGTCTCCGCACCTGTGCCTAAGAAGCTGCTCATGATGGCTGGTATCGATGACTGCTACACCTCAGCCCGGGGCTGCACTGCCACCCTGGGCAACTTCGCCAAGGCCACCTTTGATGCCATTTCTAAGACCTACAGCTACCTGACCCCCGACCTCTGGAAGGAGACTGTATTCACCAAGTCTCCCTATCAGGAGTTCACTGACCACCTCGTCAAGACCCACACCAGAGTCTCCGTGCAGCGGACTCAGGCTCCAGCTGTGGCTACAACATAGGGTTTTTATACAAGAAAAATAAAGTGAATTTAGCGTGAAAAAAAAAAAAAAAAAAAAAAAAAA
  recognition of cDNA clone by KE4-CTL, enhancement of IFN-γ production: recognized by KE4-CTL in an HLA-A26-restricted manner and in a dose dependent manner of plasmid

— patent US20050042624A1, “Tumor antigen” (Kyogo ITOH, priority 2001, published 2005)
